Test results taken from publication PMC6019379, “RecA-like domain 2 of DNA-dependent ATPase A domain, a SWI2/SNF2 protein, mediates conformational integrity and ATP hydrolysis” (Bioscience Reports, 2018).
Numbering of substitutions follows the chain as printed.

Legend:
Test in all cases: intrinsic tryptophan fluorescence titration; no ATP; Fluorescence titration (ex 295 nm, em 340 nm), one-site saturation fit; buffer, salt, pH and temperature not given in the material. Wild-type ADAAD Kd values are cited from ref 24 and not listed
Conditions in all cases: protein: recombinant; tags: His (Ni-NTA, pET-14b); hairpin
ADAAD R592A = target: T1, ADAAD R592A (Bos taurus (bovine), UniProt Q9TTA5 221-940, R812A)
T1 sequence: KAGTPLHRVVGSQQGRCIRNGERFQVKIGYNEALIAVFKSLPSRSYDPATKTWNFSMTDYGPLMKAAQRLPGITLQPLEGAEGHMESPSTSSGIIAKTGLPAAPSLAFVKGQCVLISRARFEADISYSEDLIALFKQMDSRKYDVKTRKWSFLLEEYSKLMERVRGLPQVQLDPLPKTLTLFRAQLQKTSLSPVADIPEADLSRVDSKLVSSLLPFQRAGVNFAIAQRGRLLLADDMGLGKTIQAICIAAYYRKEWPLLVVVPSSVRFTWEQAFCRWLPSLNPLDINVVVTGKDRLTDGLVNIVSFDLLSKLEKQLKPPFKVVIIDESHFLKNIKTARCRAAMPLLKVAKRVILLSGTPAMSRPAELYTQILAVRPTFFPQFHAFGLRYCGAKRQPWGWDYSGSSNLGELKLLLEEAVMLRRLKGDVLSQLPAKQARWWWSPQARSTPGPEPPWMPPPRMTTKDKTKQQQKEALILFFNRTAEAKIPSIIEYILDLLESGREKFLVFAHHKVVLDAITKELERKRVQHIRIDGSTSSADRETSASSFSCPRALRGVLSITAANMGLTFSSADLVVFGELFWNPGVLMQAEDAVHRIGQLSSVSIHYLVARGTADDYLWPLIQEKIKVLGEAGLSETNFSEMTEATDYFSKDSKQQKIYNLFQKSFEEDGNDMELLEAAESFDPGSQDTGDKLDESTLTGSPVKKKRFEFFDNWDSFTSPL

ADAAD F507A = target: T2, ADAAD F507A (Bos taurus (bovine), UniProt Q9TTA5 221-940, F727A)
T2 sequence: T1 sequence with F507A, A592R

ADAAD F507A/R592A = target: T3, ADAAD F507A/R592A (Bos taurus (bovine), UniProt Q9TTA5 221-940, F727A;R812A)
T3 sequence: T1 sequence with F507A

Binder: GCGCAATTGCGCTCGACGATTTTTTAGCGCAATTGCGC (structured_DNA) [slDNA (stem-loop DNA)]
- Kd (ADAAD R592A): 31.5 ± 1.3 nM
- Kd (ADAAD F507A): 19 ± 4.5 nM
- Kd (ADAAD F507A/R592A): 27.8 ± 3.6 nM
